# Experimental data published in the supplement of paper PMC10065799, “High-throughput profiling of sequence recognition by tyrosine kinases and SH2 domains using bacterial peptide display” (eLife, 2023).
# Tests used:
# MERTK = MERTK (UniProt Q12866); experiment: phosphorylation enrichment, bacterial display (enrichment ratio); higher = better substrate or ligand; peptides without Tyr show the background
# EPHB1 = EPHB1 (UniProt P54762); experiment: as above
# Fer (mouse) = experiment: as above
# AncSZ = experiment: as above
# FGFR3 = FGFR3 (UniProt P22607); experiment: as above
# c-Abl (mouse) = experiment: as above
# Hck = Hck (UniProt P08631); experiment: as above
# FGFR1 = FGFR1 (UniProt P11362); experiment: as above
# EPHB2 = EPHB2 (UniProt P29323); experiment: as above
# c-Src = experiment: as above
# Jak2 = Jak2 (UniProt O60674); experiment: as above
# Fyn = Fyn (UniProt P06241); experiment: as above
# Fes = Fes (UniProt P07332); experiment: as above
# SHP2-C SH2 = experiment: SH2 binding enrichment of the phosphorylated peptide, bacterial display (enrichment ratio); higher = better substrate or ligand; peptides without Tyr show the background
# Grb2 SH2 = Grb2 SH2 (UniProt P62993); experiment: as above
# c-Src SH2 = experiment: as above
# 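For SH2 binding enrichment of the phosphorylated peptide, bacterial display in this document: peptide library displayed on the E. coli surface as eCPX fusions, selected cells deep-sequenced, score is each peptide's frequency after selection divided by its frequency in the input.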
# 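For phosphorylation enrichment, bacterial display in this document: 11-residue human phosphosite peptides and single-mutation variants displayed on the E. coli surface, counted by deep sequencing, each peptide's frequency after selection divided by its frequency in the unselected input library; frequency after pTyr selection over input frequency; kinase dosed for 20-30% of maximal phosphorylation in three min.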
# Sequence of EPHB1 (P54762 whole entry, looked up): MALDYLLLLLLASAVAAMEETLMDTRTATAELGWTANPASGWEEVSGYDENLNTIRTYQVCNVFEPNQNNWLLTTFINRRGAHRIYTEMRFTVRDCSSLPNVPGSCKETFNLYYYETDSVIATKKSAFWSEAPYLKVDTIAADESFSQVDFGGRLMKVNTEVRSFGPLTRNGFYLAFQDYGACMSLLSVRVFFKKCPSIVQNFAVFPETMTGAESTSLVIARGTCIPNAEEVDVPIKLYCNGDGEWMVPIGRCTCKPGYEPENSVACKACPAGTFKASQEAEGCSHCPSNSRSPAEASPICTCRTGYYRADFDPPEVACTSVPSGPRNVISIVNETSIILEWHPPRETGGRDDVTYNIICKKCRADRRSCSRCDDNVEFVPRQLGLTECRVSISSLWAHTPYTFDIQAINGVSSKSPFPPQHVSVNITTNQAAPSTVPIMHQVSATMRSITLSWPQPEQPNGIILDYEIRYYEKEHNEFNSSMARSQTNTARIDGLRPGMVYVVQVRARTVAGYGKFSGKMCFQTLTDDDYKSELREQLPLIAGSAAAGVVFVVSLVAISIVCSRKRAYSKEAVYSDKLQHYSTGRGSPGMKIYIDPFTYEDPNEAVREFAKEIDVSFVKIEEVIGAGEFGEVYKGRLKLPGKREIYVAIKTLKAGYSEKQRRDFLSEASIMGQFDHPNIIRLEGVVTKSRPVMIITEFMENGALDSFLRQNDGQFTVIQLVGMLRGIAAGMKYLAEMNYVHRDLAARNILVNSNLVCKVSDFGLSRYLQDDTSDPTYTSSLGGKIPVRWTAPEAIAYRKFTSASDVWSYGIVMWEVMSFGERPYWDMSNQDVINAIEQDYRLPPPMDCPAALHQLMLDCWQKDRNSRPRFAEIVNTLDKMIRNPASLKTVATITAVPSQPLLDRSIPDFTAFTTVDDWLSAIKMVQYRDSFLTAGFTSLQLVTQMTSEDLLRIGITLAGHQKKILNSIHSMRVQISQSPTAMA
# Sequence of Hck (P08631 whole entry, looked up): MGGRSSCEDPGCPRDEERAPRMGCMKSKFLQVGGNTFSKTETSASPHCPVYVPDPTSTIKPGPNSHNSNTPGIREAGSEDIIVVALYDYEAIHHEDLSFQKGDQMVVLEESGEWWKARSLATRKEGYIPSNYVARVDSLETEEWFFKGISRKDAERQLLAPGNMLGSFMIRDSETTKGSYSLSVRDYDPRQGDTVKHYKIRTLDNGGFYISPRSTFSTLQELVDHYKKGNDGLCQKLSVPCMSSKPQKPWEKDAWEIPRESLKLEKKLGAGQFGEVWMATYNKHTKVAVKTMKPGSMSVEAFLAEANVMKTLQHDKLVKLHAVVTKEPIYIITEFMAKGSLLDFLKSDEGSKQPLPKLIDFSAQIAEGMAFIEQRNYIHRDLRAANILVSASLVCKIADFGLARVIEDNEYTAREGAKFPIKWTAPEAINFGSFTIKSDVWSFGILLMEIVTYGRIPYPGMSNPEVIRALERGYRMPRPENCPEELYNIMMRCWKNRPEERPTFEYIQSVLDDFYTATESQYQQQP
# Sequence of FGFR1 (P11362 whole entry, looked up): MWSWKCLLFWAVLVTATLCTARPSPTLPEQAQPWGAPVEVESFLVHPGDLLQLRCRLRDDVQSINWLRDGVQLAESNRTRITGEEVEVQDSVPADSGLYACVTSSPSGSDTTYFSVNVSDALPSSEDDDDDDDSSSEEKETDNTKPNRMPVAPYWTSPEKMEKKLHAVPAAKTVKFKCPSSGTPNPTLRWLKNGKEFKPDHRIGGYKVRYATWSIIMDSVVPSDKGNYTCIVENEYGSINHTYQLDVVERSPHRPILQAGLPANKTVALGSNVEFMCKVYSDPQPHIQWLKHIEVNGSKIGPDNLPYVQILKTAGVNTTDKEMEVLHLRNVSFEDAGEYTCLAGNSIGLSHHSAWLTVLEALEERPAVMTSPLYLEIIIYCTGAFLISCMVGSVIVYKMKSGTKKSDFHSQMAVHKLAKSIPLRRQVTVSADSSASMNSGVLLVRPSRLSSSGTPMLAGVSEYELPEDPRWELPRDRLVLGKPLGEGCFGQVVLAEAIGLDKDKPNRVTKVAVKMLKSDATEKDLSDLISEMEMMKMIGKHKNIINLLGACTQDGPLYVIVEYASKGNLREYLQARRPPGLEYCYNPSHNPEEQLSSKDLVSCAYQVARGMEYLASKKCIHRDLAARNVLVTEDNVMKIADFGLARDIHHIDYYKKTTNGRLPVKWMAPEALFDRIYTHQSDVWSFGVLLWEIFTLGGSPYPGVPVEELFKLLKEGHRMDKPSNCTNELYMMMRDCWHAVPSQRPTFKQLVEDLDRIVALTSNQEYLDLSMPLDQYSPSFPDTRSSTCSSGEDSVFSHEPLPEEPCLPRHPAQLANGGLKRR
# Sequence of Fes (P07332 whole entry, looked up): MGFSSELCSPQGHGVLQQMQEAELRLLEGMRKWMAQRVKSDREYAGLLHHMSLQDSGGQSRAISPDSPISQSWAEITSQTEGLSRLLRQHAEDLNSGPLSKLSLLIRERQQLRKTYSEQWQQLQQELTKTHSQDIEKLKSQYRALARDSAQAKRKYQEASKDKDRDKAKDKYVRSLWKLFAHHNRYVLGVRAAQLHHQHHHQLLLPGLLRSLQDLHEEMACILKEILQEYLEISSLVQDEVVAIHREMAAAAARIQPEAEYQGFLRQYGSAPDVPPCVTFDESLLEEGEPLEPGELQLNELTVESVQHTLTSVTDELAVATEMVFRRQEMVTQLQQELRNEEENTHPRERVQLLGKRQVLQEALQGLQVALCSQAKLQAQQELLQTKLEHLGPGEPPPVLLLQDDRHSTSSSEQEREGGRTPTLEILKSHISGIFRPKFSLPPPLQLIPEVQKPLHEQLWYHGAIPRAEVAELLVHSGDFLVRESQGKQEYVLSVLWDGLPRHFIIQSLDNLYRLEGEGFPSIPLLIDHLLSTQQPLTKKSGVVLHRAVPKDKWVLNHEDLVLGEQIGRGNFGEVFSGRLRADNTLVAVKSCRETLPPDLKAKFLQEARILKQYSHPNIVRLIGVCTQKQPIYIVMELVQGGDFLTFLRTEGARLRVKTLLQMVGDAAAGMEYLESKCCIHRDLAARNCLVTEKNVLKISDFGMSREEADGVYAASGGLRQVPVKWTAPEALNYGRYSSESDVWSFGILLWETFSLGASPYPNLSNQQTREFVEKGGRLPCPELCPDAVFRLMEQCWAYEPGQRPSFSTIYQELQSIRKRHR
# Sequence of Fyn (P06241 whole entry, looked up): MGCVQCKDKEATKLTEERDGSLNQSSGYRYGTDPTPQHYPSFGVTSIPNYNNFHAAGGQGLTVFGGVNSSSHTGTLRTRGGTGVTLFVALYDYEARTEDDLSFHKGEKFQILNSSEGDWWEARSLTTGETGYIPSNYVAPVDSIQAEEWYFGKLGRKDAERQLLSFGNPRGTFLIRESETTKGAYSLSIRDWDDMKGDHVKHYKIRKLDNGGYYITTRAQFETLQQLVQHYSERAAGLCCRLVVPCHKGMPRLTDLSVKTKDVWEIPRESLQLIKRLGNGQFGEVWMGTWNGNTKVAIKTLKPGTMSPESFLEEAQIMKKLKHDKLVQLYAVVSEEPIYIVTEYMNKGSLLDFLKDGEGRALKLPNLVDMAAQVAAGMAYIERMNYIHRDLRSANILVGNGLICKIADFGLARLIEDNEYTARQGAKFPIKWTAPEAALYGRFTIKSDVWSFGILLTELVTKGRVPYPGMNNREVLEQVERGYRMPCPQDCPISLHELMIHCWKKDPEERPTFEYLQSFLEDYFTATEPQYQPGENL
# Sequence of EPHB2 (P29323 whole entry, looked up): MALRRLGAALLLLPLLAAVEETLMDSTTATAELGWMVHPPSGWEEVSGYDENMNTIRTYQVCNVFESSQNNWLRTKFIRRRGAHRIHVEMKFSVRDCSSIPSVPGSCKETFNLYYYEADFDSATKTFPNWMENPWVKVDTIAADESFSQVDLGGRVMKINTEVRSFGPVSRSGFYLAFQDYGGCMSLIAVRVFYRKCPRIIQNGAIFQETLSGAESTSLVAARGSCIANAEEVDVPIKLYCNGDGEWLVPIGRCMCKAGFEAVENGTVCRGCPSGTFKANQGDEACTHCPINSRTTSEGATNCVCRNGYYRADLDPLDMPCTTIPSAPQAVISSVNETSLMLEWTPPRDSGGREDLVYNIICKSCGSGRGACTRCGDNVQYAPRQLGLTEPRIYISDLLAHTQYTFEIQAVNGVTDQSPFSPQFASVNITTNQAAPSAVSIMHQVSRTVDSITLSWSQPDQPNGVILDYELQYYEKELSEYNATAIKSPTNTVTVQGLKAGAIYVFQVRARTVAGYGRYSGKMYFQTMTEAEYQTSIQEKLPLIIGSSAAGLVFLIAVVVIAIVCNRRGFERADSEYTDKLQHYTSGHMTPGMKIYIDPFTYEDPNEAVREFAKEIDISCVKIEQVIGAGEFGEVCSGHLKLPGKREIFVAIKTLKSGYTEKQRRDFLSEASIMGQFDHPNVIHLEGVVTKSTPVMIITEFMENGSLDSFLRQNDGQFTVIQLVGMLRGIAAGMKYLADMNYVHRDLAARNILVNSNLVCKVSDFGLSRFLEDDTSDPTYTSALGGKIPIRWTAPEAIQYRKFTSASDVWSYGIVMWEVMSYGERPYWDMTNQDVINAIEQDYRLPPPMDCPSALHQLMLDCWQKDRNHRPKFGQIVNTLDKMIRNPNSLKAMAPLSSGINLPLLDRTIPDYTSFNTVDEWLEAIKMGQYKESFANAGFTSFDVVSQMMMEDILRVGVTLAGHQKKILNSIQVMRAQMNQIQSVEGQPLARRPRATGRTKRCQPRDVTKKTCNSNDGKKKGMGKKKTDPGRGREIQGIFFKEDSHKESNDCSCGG
Sequence,SH2 binding enrichment (SHP2-C SH2),SH2 binding enrichment (Grb2 SH2),SH2 binding enrichment (c-Src SH2),phosphorylation enrichment (MERTK),phosphorylation enrichment (EPHB1),phosphorylation enrichment (Fer (mouse)),phosphorylation enrichment (AncSZ),phosphorylation enrichment (FGFR3),phosphorylation enrichment (c-Abl (mouse)),phosphorylation enrichment (Hck),phosphorylation enrichment (FGFR1),phosphorylation enrichment (EPHB2),phosphorylation enrichment (c-Src),phosphorylation enrichment (Jak2),phosphorylation enrichment (Fyn),phosphorylation enrichment (Fes)
ISIFFYAKGQP [MPZ_Y82_H81Y_YF],0.529,1.33,0.406,0.527,0.608,0.554,1.33,0.865,1.25,0.573,0.544,0.611,0.548,1.43,0.395,1.52
RTTKTYFPHFD [HBA1_Y43_P38R],1.18,1.28,1.23,0.87,1.1,0.458,0.967,1.17,0.884,0.569,0.914,0.527,1.24,2.09,0.418,0.86
GLGGVYGGASG [KRT8_Y54_G53V],0.709,0.705,0.385,0.445,0.445,0.418,0.514,0.52,0.577,0.669,0.448,0.355,0.702,0.587,0.566,0.661
PTDCVYVMPTV [MYO7A_Y1668_S1666C],0.716,1.01,0.642,6.63,3.34,1.08,5.31,3.92,7.37,4.49,5,2.4,4.95,1.1,8.41,1.06
LNARHYGGLTG [PGAM2_Y92_E89A],0.656,0.779,0.446,0.44,0.376,0.634,0.585,0.513,0.668,0.542,0.567,0.3,0.631,0.606,0.301,0.573
ALARKYHGGGG [HBB_Y146_H144R],0.549,0.8,0.536,0.337,0.418,0.444,0.372,0.33,0.407,0.317,0.353,0.307,0.435,0.507,0.365,0.408
CRPPFYHRNCM [HGD_Y334_F329C_YF],1.4,1.27,1.36,0.452,0.474,0.375,0.913,0.635,0.58,0.48,0.435,0.555,0.901,0.606,0.492,0.776
HKANEYYPVVL [ADAMTS18_Y764],0.907,0.902,0.985,1.13,1.47,2.6,2.86,15.7,2.49,1.95,23.2,1.45,1.65,9.18,0.956,1.22
FTFNSYFMHWV [IGHV1-46_Y51_T49N_YF],1.07,1.12,0.795,1.04,0.726,1.62,1.55,1.37,0.962,0.693,1.51,0.761,0.555,6.35,0.608,1.59

# Continued, in another order:
SH2 binding enrichment (SHP2-C SH2),SH2 binding enrichment (Grb2 SH2),SH2 binding enrichment (c-Src SH2),Sequence,phosphorylation enrichment (MERTK),phosphorylation enrichment (EPHB1),phosphorylation enrichment (Fer (mouse)),phosphorylation enrichment (AncSZ),phosphorylation enrichment (FGFR3),phosphorylation enrichment (c-Abl (mouse)),phosphorylation enrichment (Hck),phosphorylation enrichment (FGFR1),phosphorylation enrichment (EPHB2),phosphorylation enrichment (c-Src),phosphorylation enrichment (Jak2),phosphorylation enrichment (Fyn),phosphorylation enrichment (Fes)
0.77,0.814,0.49,SGVVPYEPPEV [TP53_Y220_V216G],0.443,0.581,0.572,1.12,0.781,0.659,0.524,0.588,0.738,0.481,0.986,0.667,1.21
1.34,1.7,1.35,LLVVLNKFRCF [PSEN1_Y154_Y154N_YF],0.795,0.951,0.951,1.82,1.18,2.08,0.837,1.1,1.11,1.05,1.66,1.02,1.88
0.571,0.796,0.528,QLCVNYPGGYT [PROS1_Y259],0.513,1.32,0.811,1.24,1.42,0.845,0.965,0.767,0.772,0.537,0.999,1,1.66
1.02,0.902,0.563,SEVVPYEPPEV [TP53_Y220_V216E],0.473,0.604,0.585,1.28,0.81,0.784,0.582,0.601,0.621,0.529,1.16,0.583,1.33
0.858,0.799,0.603,FEEDSYVKRSQ [RET_Y905_YF],0.417,0.52,0.41,0.904,0.552,0.645,0.487,0.41,0.492,0.47,0.881,0.523,1.11
4.46,0.603,2.36,QDRTFYERVRT [SPEN_Y633_S635R_YF],0.539,0.416,3.63,0.583,0.441,0.582,1.2,0.529,0.42,0.402,0.509,0.403,0.591
0.731,1.08,4.54,TWEKPYECVQC [ZNF24_Y335_G331W],0.492,0.521,4.82,0.904,0.648,0.534,0.623,0.516,0.601,0.887,0.84,0.489,0.964
